The target in test [1] is amyloid precursor protein (APP), mouse (mouse (endogenous in C57BL/6 hippocampus)).
For test [2] the target is unchanged. The source holds these as a separate data set.

Regarding “GluN2B subunit of the NMDA receptor, mouse (from UniProt Q01097 27-1482)”, the effect of ifenprodil (5 μM, GluN2B antagonist) on NMDAR EPSCs in infant neurons previously incubated with the Y188 antibody against the APP C-terminal, versus the control condition in test [1] came to 19.8%. The substance further registered a reduction in NMDAR EPSCs in CA1 pyramidal neurons of infant mice with the APP C-terminal antibody Y188 (2.5 nM) in the recording pipette, compared with boiled Y188 in test [2] of 21.1%.

Values taken from paper PMC10014064.
